Tests used:
[1] = Whole cell TAL activity temperature profile; type: cell-based, E. coli
Protocol: A fermentation run was performed as in Example 6 for strain DPD5154. The TAL activity of the strain was measured in a cell-based assay at different temperatures. The fermentation cell paste was resuspended in water, and diluted to OD600 of 3.0. Formation of pHCA was monitored in a 1.0 ml reaction in a UV grade disposable cuvette (VWR) for three minutes at λ315 nm, 35° C. with 0.03 OD600 of DPD5154 cells, in 100 mM CAPS, pH10 with 10 mM tyrosine. The pH value of the CAPS buffer was adjusted according to the corresponding assay temperature, which was varied from 25° C. to 60° C. The TAL activity was calculated using the following equation based on the assumption that 1.0 OD600 of E. coli cells is equivalent to 0.33 g/L dry cell weight (dcw). The extinction coefficient of pHCA at pH 10 at 315 nm had previously been experimentally determined to be 16,800 M^−1 cm^−1. One unit of enzyme activity is defined as the formation of 1.0 μM of pHCA product per minute reaction. The total TAL Activity (μM/min)=Initial Slope (/min)×[1,000,000 (μM/M)/16,800 M^−1 cm^−1]=Slope (/min)×59.52 (μM)

[2] = Kinetic parameters of the PcTAL enzyme for tyrosine; type: biochemical; conditions: from kcat/KM, 45° C., 100 mM CAPS pH 9.5
Protocol: The kinetic parameters of the PcTAL enzyme for tyrosine and phenylalanine were determined at 45° C., in 100 mM CAPS, pH 9.5 buffer. The increase of TAL and PAL activities with increasing substrate concentrations followed the typical Michaelis-Menton equation. The kcat of the enzyme was 1.3 S^−1 for tyrosine, and 3.3 S^−1 for phenylalanine. The KM was 44 μM for tyrosine and 161 μM for phenylalanine. The kcat/KM value was slightly higher for tyrosine (3.0 M^−1 S^−1) than for phenylalanine (2.1 M^−1 S^−1), indicating the enzyme's slight preference for tyrosine (PAL/TAL ratio of 0.7). […] The substrate specificity of the PcTAL enzyme is therefore similar to other known fungal PAL/TAL enzymes, such as that from R. glutinis, with dual specificity for tyrosine and phenylalanine.

[3] = Bioconversion of tyrosine to pHCA by cell suspensions in 50 ml tubes; type: cell-based, E. coli; conditions: pH 9.9, 0.5 g dcw/L, 20 g/L tyrosine (Example 11)
Protocol: A suspension of DPD5154 cells in ˜75 ml of saline solution (8.5 g NaCl/L) with a cell concentration at an OD550 of 221.47 was used. The desired OD550 of 2.998 (0.989 g dcw/L) was achieved through serial dilution of the original sample. The cell suspension was equilibrated to 50° C., titrated to pH 9.9 and stored at 50° C. A tyrosine stock of 40 g/L at pH 9.9 was also prepared and stored at 50° C. Reactions measuring bioconversion of tyrosine to pHCA by the cell suspension were carried out at the following temperatures: 34° C., 39° C., 47° C., and 59° C. Each reaction was initiated by adding 5.0 ml of the cell suspension to 5.0 ml of the 40 g/L tyrosine solution in a 50 ml disposable conical tube. The final concentration of cells in each reaction was 0.5 g dcw/L. The final concentration of tyrosine in each reaction was 20 g/L (110 mM). All reactions were incubated at the temperatures indicated above with shaking at 180 rpm. Samples (750 μl) were taken at 30, 60, 90, 120 minutes, centrifuged (14,000×g for ˜8 minutes), the supernatants filtered through 0.2 um filters (Costar #8161), and the filtrates diluted using 50 mM Tris/HCl, pH 7.5. The filtrates were analyzed by HPLC for the amount of pHCA as described in General Methods. The optimum reaction temperature among those temperatures tested was determined to be 39° C., and the reaction slowed down dramatically at 59° C. […]
To determine the optimum pH (between pH 9.8-11.0) for the bioconversion reaction of tyrosine to pHCA at 42° C. using strain DPD5154, reactions were performed as described in Example 11. Tyrosine solutions (40 g/L concentration) were titrated to pH 9.8, 10.0, 10.2, 10.5, and 11.0 and stored at 42° C. Reactions were initiated by adding 5.0 ml of cell suspension to 5.0 ml of each tyrosine solution in a 50 ml disposable conical tube. The final concentration of cells in each reaction was 0.5 g dcw/L and the final concentration of tyrosine was 20 g/L (110 mM). Reactions were incubated at 42° C. with shaking at 180 rpm.

B1: PcTAL: thermostable tyrosine ammonia lyase (PAL/TAL) enzyme from Phanerochaete chrysosporium, SEQ ID NO:1 (protein, listed as Phanerochaete chrysosporium)
chain: MPSRIDYYTSSGNGYAQSRKSSAIYPASASTGHAAPSTERKPELLDKFVEAYDELQSYREGKPVIVDGHNLSIPAVAATARFGAAVVLDENPETHERVLQSRRVIVDKVSTQRSVYGVSTGFGGSADTRTSDPLQLGHALLQHQHVGVLPTQTESPLPALPLGDPLATTSMPEAWVRGAILIRMNSLIRGHSGVRWELIEKMGELLRENITPLVPLRGSISASGDLSPLSYIAGTLIGSPAIRVFDGPASYGARRILPSNIALANHGVAPIPLSSKEHLGILNGTAFSASVGALALNEAVHLSLLAQVCTAMGTEAMIGAVGSFDAFIHDTARPHPGQVEVARNVRTLLEDSQMAVKAEDEVHIAEDEGELRQDRYPLRTAAQFLGPQIEDILSAHETVTLECNSTTDNPLIDGETGTVHHGGNFQAMAVTNAMEKTRLAIHHIGKLLFAQATELINPMMNRGLPPNLAATDPSHNYFAKGVDIHLAAYVGELGFLASPVSSHIQSAEMHNQAVNSLALVSARYTISALDVLSLLTAAYLYVLCQALDLRAMHNDLQSSLSAIVRELLPKHFPSAAKRADALLPILERTIFRALNSSSSADCKARMVSVAASTTTPLVDFLSADAALASELANITAFRTELATRAADALTTLRTQYLEGARGAAPASKYLGKTRPVYEFVRVTLNVPMHGRENLHNFEMGPGVEDGIIGNNISTIYEAIRDGKMQNVVMQLVKSIKA
activity at 60° C. relative to that at 25° C. in whole cells [1]: about 6 fold | PAL/TAL ratio [2]: 0.7 | pHCA (mM) formed in 2 h ([3]; 34° C.): 5.0 mM | pHCA (mM) formed in 2 h ([3]; 39° C.): 6.2 mM | pHCA (mM) formed in 2 h ([3]; 47° C.): 4.7 mM | pHCA (mM) formed in 2 h ([3]; 59° C.): 0.02 mM
